Test results published in patent publication US20240158448A1 (published 2024).
No end group written: not given here. FAM = 5(6)-carboxyfluorescein

T1: mouse SIRPα expressed on J774A.1 macrophages (mouse, UniProt P97797 32-513)
T1 chain: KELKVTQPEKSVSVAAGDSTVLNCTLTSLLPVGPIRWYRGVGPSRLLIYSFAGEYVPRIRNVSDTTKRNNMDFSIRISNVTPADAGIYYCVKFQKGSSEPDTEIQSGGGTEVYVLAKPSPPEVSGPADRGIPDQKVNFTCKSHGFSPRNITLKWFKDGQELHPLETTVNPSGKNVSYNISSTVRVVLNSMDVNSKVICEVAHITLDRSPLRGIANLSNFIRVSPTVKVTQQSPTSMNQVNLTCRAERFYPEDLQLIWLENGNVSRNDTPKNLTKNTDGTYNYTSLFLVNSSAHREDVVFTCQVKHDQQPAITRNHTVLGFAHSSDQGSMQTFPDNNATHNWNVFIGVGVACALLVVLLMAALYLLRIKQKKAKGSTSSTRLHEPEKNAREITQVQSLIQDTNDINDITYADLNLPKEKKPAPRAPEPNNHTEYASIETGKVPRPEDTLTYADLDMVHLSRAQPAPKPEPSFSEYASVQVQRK


What was measured:
[1] = biological target: T1, mouse SIRPα expressed on J774A.1 …; assay: fluorescence microscopy saturation binding; live J774A.1 macrophages
[2] = biological target: T2, human SIRPα expressed on cells (PMA-differentiated THP-1 macrophages; A549 cells) (human, UniProt P78324 31-504); assay: fluorescence microscopy saturation binding; live THP-1 macrophages, corrected by subtracting nS-X-FAM
[3] = biological target: T2, human SIRPα expressed on cells …; assay: fluorescence microscopy saturation binding; live THP-1 macrophages
[4] = biological target: T2, human SIRPα expressed on cells …; assay: fluorescence microscopy saturation binding; fixed THP-1 macrophages

Row | Binder | Kd [1] | Kd [2] | Kd [3] | Kd [4]
1 | K(FAM)VTELTREG-NH2 [FAM-labeled nS-wt] | 138 µM | 52 µM | 148 µM | 
2 | K(FAM)VTELVREG-NH2 [FAM-labeled nS-V] | 203 µM | 123 µM | 161 µM | 32 µM

Further binders by falling Kd [3], results first:

Row | Kd [1] | Kd [2] | Kd [3] | Kd [4] | Binder
3 |  |  | 916 µM |  | K(FAM)LETVEGTR-NH2 [FAM-labeled nS-X]
4 |  | 93 µM | 195 µM |  | K(FAM)VTELFREG-NH2 [FAM-labeled nS-F]
